# Test results: IntAct's records for PubMed 9428768
# B1: Cell division control protein 24 (Saccharomyces cerevisiae), P11433 (parent)
# chain: MAIQTRFASGTSLSDLKPKPSATSISIPMQNVMNKPVTEQDSLFHICANIRKRLEVLPQLKPFLQLAYQSSEVLSERQSLLLSQKQHQELLKSNGANRDSSDLAPTLRSSSISTATSLMSMEGISYTNSNPSATPNMEDTLLTFSMGILPITMDCDPVTQLSQLFQQGAPLCILFNSVKPQFKLPVIASDDLKVCKKSIYDFILGCKKHFAFNDEELFTISDVFANSTSQLVKVLEVVETLMNSSPTIFPSKSKTQQIMNAENQHRHQPQQSSKKHNEYVKIIKEFVATERKYVHDLEILDKYRQQLLDSNLITSEELYMLFPNLGDAIDFQRRFLISLEINALVEPSKQRIGALFMHSKHFFKLYEPWSIGQNAAIEFLSSTLHKMRVDESQRFIINNKLELQSFLYKPVQRLCRYPLLVKELLAESSDDNNTKELEAALDISKNIARSINENQRRTENHQVVKKLYGRVVNWKGYRISKFGELLYFDKVFISTTNSSSEPEREFEVYLFEKIIILFSEVVTKKSASSLILKKKSSTSASISASNITDNNGSPHHSYHKRHSNSSSSNNIHLSSSSAAAIIHSSTNSSDNNSNNSSSSSLFKLSANEPKLDLRGRIMIMNLNQIIPQNNRSLNITWESIKEQGNFLLKFKNEETRDNWSSCLQQLIHDLKNEQFKARHHSSTSTTSSTAKSSSMMSPTTTMNTPNHHNSRQTHDSMASFSSSHMKRVSDVLPKRRTTSSSFESEIKSISENFKNSIPESSILFRISYNNNSNNTSSSEIFTLLVEKVWNFDDLIMAINSKISNTHNNNISPITKIKYQDEDGDFVVLGSDEDWNVAKEMLAENNEKFLNIRLY
# partner: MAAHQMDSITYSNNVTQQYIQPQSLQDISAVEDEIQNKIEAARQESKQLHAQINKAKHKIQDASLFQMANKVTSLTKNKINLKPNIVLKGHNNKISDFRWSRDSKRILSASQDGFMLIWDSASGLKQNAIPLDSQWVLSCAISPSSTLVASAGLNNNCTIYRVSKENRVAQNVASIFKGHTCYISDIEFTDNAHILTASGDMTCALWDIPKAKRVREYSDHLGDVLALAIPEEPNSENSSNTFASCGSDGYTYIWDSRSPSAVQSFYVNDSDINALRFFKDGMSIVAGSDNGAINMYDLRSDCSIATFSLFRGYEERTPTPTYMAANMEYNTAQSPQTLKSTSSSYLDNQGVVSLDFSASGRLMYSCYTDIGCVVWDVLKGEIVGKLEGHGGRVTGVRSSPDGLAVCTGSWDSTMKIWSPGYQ
# Variants of: B1
# Details: with gbb_yeast STE4, P18851
row,Variant,effect of a mutation on the interaction
1,S189F,disrupting interaction
